# Source: patent US20220204610A1, “PROTEIN BINDERS FOR IRHOM2” (NEW YORK SOCIETY FOR THE RELIEF OF THE RUPTURED AND …, priority 2019, published 2022)
# Primed or numbered codes have the meaning given here. Where no end group is shown, it is not given here. Side-chain parts run from the residue outwards. [ ]: non-standard residue; d: D form. The star is where a group is joined. PEG(11) = undeca(ethylene glycol) spacer (11 ethylene glycol units) between biotin and maleimide; Biotin = O=C1N[C@H]2[C@H](CS[C@H]2CCCCC(=O)*)N1; PEG11′ = not defined here; Abu = CC[C@H](N)C(=O)O
# T1: human iRhom2 (inactive rhomboid protein 2, isoform 1, NP_078875.4) (human, UniProt Q6PJF5 1-856)
# T1 sequence: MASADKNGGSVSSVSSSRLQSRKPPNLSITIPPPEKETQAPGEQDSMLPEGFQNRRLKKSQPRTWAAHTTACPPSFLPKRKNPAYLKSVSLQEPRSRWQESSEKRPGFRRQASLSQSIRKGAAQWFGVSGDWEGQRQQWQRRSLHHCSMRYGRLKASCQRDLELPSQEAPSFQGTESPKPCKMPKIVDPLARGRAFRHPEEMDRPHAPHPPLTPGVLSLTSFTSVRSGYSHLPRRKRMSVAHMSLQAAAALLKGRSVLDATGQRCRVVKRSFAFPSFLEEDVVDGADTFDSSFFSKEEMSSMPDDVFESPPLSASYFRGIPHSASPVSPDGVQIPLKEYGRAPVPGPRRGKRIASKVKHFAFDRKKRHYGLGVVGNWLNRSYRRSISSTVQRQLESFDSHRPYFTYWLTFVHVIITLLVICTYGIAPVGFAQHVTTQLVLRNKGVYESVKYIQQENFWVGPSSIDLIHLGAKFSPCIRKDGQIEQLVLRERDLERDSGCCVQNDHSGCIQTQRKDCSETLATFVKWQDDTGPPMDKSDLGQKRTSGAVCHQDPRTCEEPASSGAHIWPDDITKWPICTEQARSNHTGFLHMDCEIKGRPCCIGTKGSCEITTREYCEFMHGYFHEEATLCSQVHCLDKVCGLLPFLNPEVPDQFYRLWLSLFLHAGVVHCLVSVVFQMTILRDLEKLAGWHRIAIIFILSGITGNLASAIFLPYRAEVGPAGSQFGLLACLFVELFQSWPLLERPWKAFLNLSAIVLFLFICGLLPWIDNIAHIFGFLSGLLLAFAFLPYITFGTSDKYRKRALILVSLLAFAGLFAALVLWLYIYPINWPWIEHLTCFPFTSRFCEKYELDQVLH
# T2: peptide 3b (human iRhom1 juxtamembrane domain of TMD1, AA433-461), biotinylated (human, biotin-PEG(11)-maleimide on the added C-terminal cysteine)
# T2 peptide: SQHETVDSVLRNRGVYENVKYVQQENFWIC
# T3: peptide 5 (human iRhom2 loop 1, AA474-498), biotinylated (human, X (position 4) = aminobutyrate in place of the internal cysteine; biotin-PEG(11)-maleimide on the added N-terminal cysteine)
# T3 construct: also called immunization peptide 5
# T3 peptide: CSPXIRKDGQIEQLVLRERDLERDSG
# T4: peptide 7 (human iRhom2 loop 1, AA578-600), biotinylated (human, X (position 16) = aminobutyrate in place of the internal cysteine; biotin-PEG(11)-maleimide on the natural terminal cysteine)
# T4 construct: also called immunization peptide 7
# T4 peptide: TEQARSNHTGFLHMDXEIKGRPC
# T5: peptide 6 (human iRhom2 loop 1, AA508-548), biotinylated (human, not fully specified; X (position 9) = aminobutyrate in place of the internal cysteine; biotin-PEG(11)-maleimide on the natural terminal cysteine)
# T5 construct: also called immunization peptide 6
# T5 peptide: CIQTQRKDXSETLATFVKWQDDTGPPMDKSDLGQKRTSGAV
# T6: peptide 9 (human iRhom2 C-terminus, AA819-839), biotinylated (human, X (position 20) = aminobutyrate in place of the internal cysteine; biotin-PEG(11)-maleimide on the added C-terminal cysteine)
# T6 construct: also called immunization peptide 9
# T6 peptide: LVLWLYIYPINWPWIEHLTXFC
# T7: peptide 11 (human iRhom2 C-terminus, AA819-856), biotinylated (human, oxidized to the cyclic disulfide; biotin-PEG(11)-maleimide on the added C-terminal cysteine)
# T7 construct: also called immunization peptide 11
# T7 peptide: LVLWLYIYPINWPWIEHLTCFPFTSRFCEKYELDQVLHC
# T8: peptide 4b (human iRhom1 juxtamembrane domain of TMD1, AA428-461), biotinylated (human, biotin-PEG(11)-maleimide on the added C-terminal cysteine)
# T8 peptide: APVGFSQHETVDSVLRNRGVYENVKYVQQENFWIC
# T9: peptide 10 (human iRhom2 C-terminus, AA824-856), biotinylated (human, oxidized to the cyclic disulfide; biotin-PEG(11)-maleimide on the added C-terminal cysteine)
# T9 construct: also called immunization peptide 10
# T9 peptide: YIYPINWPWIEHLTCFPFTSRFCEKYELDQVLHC
# T10: peptide 2b (human iRhom1 juxtamembrane domain of TMD1, AA428-449), biotinylated (human, biotin-PEG(11)-maleimide on the added C-terminal cysteine)
# T10 peptide: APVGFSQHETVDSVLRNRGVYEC
# T11: peptide 8 (human iRhom2 C-terminus, AA824-839), biotinylated (human)
# T11 construct: also called immunization peptide 8
# T11 peptide: YIYPINWPWIEHLT[Abu]FC([maleimide-PEG11′-Biotin])
# T12: peptide 1b (human iRhom1 juxtamembrane domain of TMD1, AA433-449), biotinylated (human)
# T12 peptide: SQHETVDSVLRNRGVYEC([maleimide-PEG(11)-Biotin])
# B1: antibody 4H8-E3 of the invention (antibody, V domains shown)
# VH: EVQLQQSGPELVKPGASVKISCKASGYTFTDYYMNWVKQSHGKSLEWIGDINPNNGGTSYNQKFKGKATLTVDKSSNTAYMEFRSLTSEDSAVYYCARRGYYGVDYWGQGTTLTVSS
# VL: NIVMTQSPKSMSMSVGERVTLNCKASENVGTYVSWYQQKPEQSPKLLIFGASNRYTGVPDRFIGSGFATDFTLTISSVQAEDLADYHCGQSYSYPYTFGGGTKLEIK
# notes: Mouse monoclonal antibody purified from the supernatant of hybridoma sub-clone 4H8-E3; also called anti JMD1 antibody 4H8-E3; purified antibody 4H8-E3
# Key:
# [1] = system: LPS-induced release of endogenous TNFα from human THP-1 macrophage cells; assay: ELISA-based TNFα release assay with purified antibody (Example 11); type: cell-based; conditions: Homo sapiens; positive control at 10 μM final; THP-1 cells; LPS 50 ng/ml, 2 hours
# Experimental: In the following study, ELISA-based TNFα release assays were performed to verify the inhibitory effects of the purified antibody 4H8-E3 of the invention on LPS-induced release of endogenous TNFα from human THP-1 macrophage cells.
# In brief, on day 1, Nunc black MaxiSorp® 96-well plates (Thermo Fisher Scientific, USA) were coated overnight with 100 μl per well of mouse anti-human TNFα capture antibody (provided as part of the DuoSet ELISA kit) at 4 μg/ml TBS at 4° C. On day 2, the capture antibody solution was removed and MaxiSorp® plates were blocked with 300 μl per well of TBS, 1% BSA at room temperature for 3 hours. […] Using an infinite M1000 PRO (Tecan Group, Switzerland) microplate reader, the fluorescence of each well was collected at an excitation wavelength of 435 nm and an emission wavelength of 555 nm.
# [2] = target: T1, human iRhom2 (inactive rhomboid protein …); assay: cell-based or functional assay
# [3] = target: T2, peptide 3b (human iRhom1 juxtamembrane …); assay: peptide binding ELISA, biotinylated peptide coated
# [4] = target: T3, peptide 5 (human iRhom2 loop 1, …); assay: peptide binding ELISA, biotinylated peptide coated
# [5] = target: T4, peptide 7 (human iRhom2 loop 1, …); assay: peptide binding ELISA, biotinylated peptide coated
# [6] = target: T5, peptide 6 (human iRhom2 loop 1, …); assay: peptide binding ELISA, biotinylated peptide coated
# [7] = target: T6, peptide 9 (human iRhom2 C-terminus, …); assay: peptide binding ELISA, biotinylated peptide coated
# [8] = target: T7, peptide 11 (human iRhom2 C-terminus, …); assay: peptide binding ELISA, biotinylated peptide coated
# [9] = target: T8, peptide 4b (human iRhom1 juxtamembrane …); assay: peptide binding ELISA, biotinylated peptide coated
# [10] = target: T9, peptide 10 (human iRhom2 C-terminus, …); assay: peptide binding ELISA, biotinylated peptide coated
# [11] = target: T10, peptide 2b (human iRhom1 juxtamembrane …); assay: peptide binding ELISA, biotinylated peptide coated
# [12] = target: T11, peptide 8 (human iRhom2 C-terminus, …); assay: peptide binding ELISA, biotinylated peptide coated
# [13] = target: T12, peptide 1b (human iRhom1 juxtamembrane …); assay: peptide binding ELISA, biotinylated peptide coated
Molecule,inhibition at 10 µM [1],IC50 on LPS-induced release of endogenous TNFα from THP-1 cells [2],binding result [3],binding result [4],binding result [5],binding result [6],binding result [7],binding result [8],binding result [9],binding result [10],binding result [11],binding result [12],binding result [13]
"CNC(=O)[C@H](Cc1ccccc1)NC(=O)[C@H](CC(C)C)[C@H](CSc1cccs1)C(=O)NO [Batimastat, reference compound]",92.5%,–,–,–,–,–,–,–,–,–,–,–,–
B1,–,6.48 nM,no binding (tested: 3 µg/ml),no binding (tested: 3 µg/ml),no binding (tested: 3 µg/ml),no binding (tested: 3 µg/ml),no binding (tested: 3 µg/ml),no binding (tested: 3 µg/ml),no binding (tested: 3 µg/ml),no binding (tested: 3 µg/ml),no binding (tested: 3 µg/ml),no binding (tested: 3 µg/ml),no binding (tested: 3 µg/ml)
